Test results from patent publication US12180280 (dated 2024).
Read-outs that look alike come from different tables or passages of the source.

Experiments:
Assay in all cases: SPR
human CD3 epsilon [1] = molecular target: T1, human CD3 epsilon (human, UniProt P07766)
T1 chain: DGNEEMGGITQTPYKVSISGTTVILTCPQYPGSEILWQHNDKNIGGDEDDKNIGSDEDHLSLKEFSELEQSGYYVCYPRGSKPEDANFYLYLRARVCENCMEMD

human CD3 epsilon [2] = molecular target: T1, human CD3 epsilon
monkey CD3 epsilon [3] = molecular target: T2, monkey CD3 epsilon (cynomolgus monkey, UniProt Q95LI5)
T2 chain: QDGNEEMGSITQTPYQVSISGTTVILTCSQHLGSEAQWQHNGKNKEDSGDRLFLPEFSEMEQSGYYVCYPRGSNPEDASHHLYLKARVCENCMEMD

monkey CD3 epsilon [4] = molecular target: T2, monkey CD3 epsilon
human CD3 epsilon [5] = molecular target: T1, human CD3 epsilon

Binder | Kd (human CD3 epsilon [1]) | Kd (human CD3 epsilon [2]) | Kd (monkey CD3 epsilon [3]) | Kd (monkey CD3 epsilon [4]) | Kd (human CD3 epsilon [5])
CD20-TCB (CD3 arm) (antibody) chain 1: not shown chain 2: QVQLVQSGAEVKKPGSSVKVSCKASGYAFSYSWINWVRQAPGQGLEWMGRIFPGDGDTDYNGKFKGRVTITADKSTSTAYMELSSLRSEDTAVYYCARNVFDGYWLVYWGQGTLVTVSSASTKGPSVFPLAPSSKSTSGGTAALGCLVEDYFPEPVTVSWNSGALTSGVHTFPAVLQSSGLYSLSSVVTVPSSSLGTQTYICNVNHKPSNTKVDEKVEPKSCDKTHTCPPCPAPEAAGGPSVFLFPPKPKDTLMISRTPEVTCVVVDVSHEDPEVKFNWYVDGVEVHNAKTKPREEQYNSTYRVVSVLTVLHQDWLNGKEYKCKVSNKALGAPIEKTISKAKGQPREPQVCTLPPSRDELTKNQVSLSCAVKGFYPSDIAVEWESNGQPENNYKTTPPVLDSDGSFFLVSKLTVDKSRWQQGNVFSCSVMHEALHNHYTQKSLSLSP chain 3: EVQLLESGGGLVQPGGSLRLSCAASGFTFSTYAMNWVRQAPGKGLEWVSRIRSKYNNYATYYADSVKGRFTISRDDSKNTLYLQMNSLRAEDTAVYYCVRHGNFGNSYVSWFAYWGQGTLVTVSSASVAAPSVFIFPPSDEQLKSGTASVVCLLNNFYPREAKVQWKVDNALQSGNSQESVTEQDSKDSTYSLSSTLTLSKADYEKHKVYACEVTHQGLSSPVTKSFNRGEC chain 4: DIVMTQTPLSLPVTPGEPASISCRSSKSLLHSNGITYLYWYLQKPGQSPQLLIYQMSNLVSGVPDRFSGSGSGTDFTLKISRVEAEDVGVYYCAQNLELPYTFGGGTKVEIKRTVAAPSVFIFPPSDRKLKSGTASVVCLLNNFYPREAKVQWKVDNALQSGNSQESVTEQDSKDSTYSLSSTLTLSKADYEKHKVYACEVTHQGLSSPVTKSFNRGEC | 5.6 nM | – | – | – | –
15H2L3 (antibody, V domains shown) VH: EVQLLESGGGLVQPGGSLRLSCAASGFTFNTYAMNWVRQAPGKGLEWVARIRSKYNNYATYYAISVKDRFTISRDNSKNTLYLQMNSLRAEDTAVYYCVKHGNFGNSYLSYWAYWGQGTLVTVSS VL: QAVVTQEPSLTVSPGGTVTLTCQSSTGAVTTNNYANWVQQKPGHAFRGLIGGTKQRAPGVPARFSGSLLGGKAALTLSGVQPEDEAEYYCVLWYSNLWVFGGGTKLTVL | – | 0.104 nM | 0.777 nM | – | –
15H2L2 (antibody, V domains shown) VH: EVQLLESGGGLVQPGGSLRLSCAASGFTFNTYAMNWVRQAPGKGLEWVARIRSKYNNYATYYAISVKDRFTISRDNSKNTLYLQMNSLRAEDTAVYYCVKHGNFGNSYLSYWAYWGQGTLVTVSS VL: QTVVTQEPSLTVSPGGTVTLTCQSSTGAVTTNNYANWVQQKPGQAPRALIGGTKQRAPGTPARFSGSLLGGKAALTLSGVQPEDEAEYYCVLWYSNLWVFGGGTKLTVL | – | 0.516 nM | 5.84 nM | – | –
26H3L3 (antibody, V domains shown) VH: EVQLLESGGGLVQPGGSLRLSCAASGFTFNTYAMNWVRQAPGKGLEWVARIRSKYNNYATYYADSVKDRFTISRDDSKNTLYLQMNSLRAEDTAMYYCVRHGNFGNSYISWWAYWGQGTLVTVSS VL: QAVVTQEPSLTVSPGGTVTLTCKSSTGAVTTSNYANWVQQKPGHAFRGLIGGTNLHAPGVPARFSGSLLGGKAALTLSGVQPEDEAEYYCALWYSNLWVFGGGTKLTVL | – | 0.864 nM | 0.192 nM | – | –
MBS303-1 (CD3 arm) (antibody, V domains shown) VH: EVQLLESGGGLVQPGGSLRLSCAASGFTFNTYAMNWVRQAPGKGLEWVARIRSKYNNYATYYAISVKDRFTISRDNSKNTLYLQMNSLRAEDTAVYYCVKHGNFGNSYLSYWAYWGQGTLVTVSS VL: QAVVTQEPSLTVSPGGTVTLTCQSSTGAVTTNNYANWVQQKPGHAFRGLIGGTKQRAPGVPARFSGSLLGGKAALTLSGVQPEDEAEYYCVLWYSNLWVFGGGTKLTVL | 1.99 nM | – | – | – | –
26H2L3 (antibody, V domains shown) VH: EVQLLESGGGLVQPGGSLRLSCAASGFTFNTYAMNWVRQAPGKGLEWVARIRSKYNNYATYYADSVKDRFTISRDNSKNTLYLQMNSLRAEDTAVYYCVKHGNFGNSYISWWAYWGQGTLVTVSS VL: QAVVTQEPSLTVSPGGTVTLTCKSSTGAVTTSNYANWVQQKPGHAFRGLIGGTNLHAPGVPARFSGSLLGGKAALTLSGVQPEDEAEYYCALWYSNLWVFGGGTKLTVL | – | 3.95 nM | 2.27 nM | – | –
MBS303-2 (CD3 arm) (antibody, V domains shown) VH: EVQLLESGGGLVQPGGSLRLSCAASGFTFNTYAMNWVRQAPGKGLEWVARIRSKYNNYATYYAISVKDRFTISRDDSKNTLYLQMNSLRAEDTAMYYCVRHGNFGNSYLSYWAYWGQGTLVTVSS VL: QAVVTQEPSLTVSPGGTVTLTCQSSTGAVTTNNYANWVQQKPGHAFRGLIGGTKQRAPGVPARFSGSLLGGKAALTLSGVQPEDEAEYYCVLWYSNLWVFGGGTKLTVL | 1.79 nM | – | – | – | –
15H3L3 (antibody, V domains shown) VH: EVQLLESGGGLVQPGGSLRLSCAASGFTFNTYAMNWVRQAPGKGLEWVARIRSKYNNYATYYAISVKDRFTISRDDSKNTLYLQMNSLRAEDTAMYYCVRHGNFGNSYLSYWAYWGQGTLVTVSS VL: QAVVTQEPSLTVSPGGTVTLTCQSSTGAVTTNNYANWVQQKPGHAFRGLIGGTKQRAPGVPARFSGSLLGGKAALTLSGVQPEDEAEYYCVLWYSNLWVFGGGTKLTVL | – | 0.0967 nM | 0.616 nM | – | –
15H3L2 (antibody, V domains shown) VH: EVQLLESGGGLVQPGGSLRLSCAASGFTFNTYAMNWVRQAPGKGLEWVARIRSKYNNYATYYAISVKDRFTISRDDSKNTLYLQMNSLRAEDTAMYYCVRHGNFGNSYLSYWAYWGQGTLVTVSS VL: QTVVTQEPSLTVSPGGTVTLTCQSSTGAVTTNNYANWVQQKPGQAPRALIGGTKQRAPGTPARFSGSLLGGKAALTLSGVQPEDEAEYYCVLWYSNLWVFGGGTKLTVL | – | 0.205 nM | 0.591 nM | – | –
19-37 (antibody, V domains shown) VH: EVKLLESGGGLVQPKGSLKLSCAASGFTFNTYAMNWVRQAPGKGLEWVARIRSKYNNYATYYAISVKDRFTISRDDSQSILYLQMNNLKTEDTAMYYCVRHGNFGNSYISYWAYWGQGTLVTVSA VL: QAVVTQESALTTSPGETVTLTCRSSTGAVTTNNYANWVQEKPDHLFTGLIGGTRLSAPGVPARFSGSLIGDKAALTITGAQTEDEAIYFCVLWYSNLWVFGGGTKLTVL | – | – | – | 0.00379 nM | 0.00628 nM
19-15 (antibody, V domains shown) VH: EVKLLESGGGLVQPKGSLKLSCAASGFTFNTYAMNWVRQAPGKGLEWVARIRSKYNNYATYYAISVKDRFTISRDDSQSILYLQMNNLKTEDTAMYYCVRHGNFGNSYLSYWAYWGQGTLVTVSA VL: QAVVTQESALTTSPGETVTLTCQSSTGAVTTNNYANWVQEKPDHLFTGLIGGTKQRAPGVPARFSGSLIGDKAALTITGAQTEDEAIYFCVLWYSNLWVFGGGTKLTVL | – | – | – | 0.232 nM | 0.143 nM
19-26 (antibody, V domains shown) VH: EVKLLESGGGLVQPKGSLKLSCAASGFTFNTYAMNWVRQAPGKGLEWVARIRSKYNNYATYYADSVKDRFTISRDDSQSILYLQMNNLKTEDTAMYYCVRHGNFGNSYISWWAYWGQGTLVTVSA VL: QAVVTQESALTTSPGETVTLTCKSSTGAVTTSNYANWVQEKPDHLFTGLIGGTNLHAPGVPARFSGSLIGDKAALTITGAQTEDEAIYFCALWYSNLWVFGGGTKLTVL | – | – | – | 0.237 nM | 0.184 nM
CD3-19 (antibody, V domains shown) VH: EVKLLESGGGLVQPKGSLKLSCAASGFTFNSYAMNWVRQAPGKGLEWVARIRSKYNNYATYYADSVKDRFTISRDDSQSILYLQMNNLKTEDTAMYYCVRHGNFGNSYLSYWAYWGQGTLVTVSA VL: QAVVTQESALTTSPGETVTLTCDSSTGAVTTSNYANWVQEKPDHLFTGLIGGTQRSAPGVPARFSGSLIGDKAALTITGAQTEDEAIYFCVLWYSNLWVFGGGTKLTVL | – | – | – | 0.347 nM | 0.222 nM
